Data published in the Human Domainome abundance scans (Beltran et al. 2025).
± gives the uncertainty stated by the source.

Experiment: abundance fitness (aPCA) (normalised: wild type 0, dead -1); higher = more abundant; growth selection in yeast, the domain comes from the species named
Conditions: Homo sapiens

Substance | abundance fitness
DnaJ homolog subfamily B member 1 R30G, P25685 | -0.056 ± 0.11
DnaJ homolog subfamily B member 1 R30H, P25685 | -0.125 ± 0.088
DnaJ homolog subfamily B member 1 R30I, P25685 | -0.036 ± 0.095
DnaJ homolog subfamily B member 1 R30K, P25685 | -0.086 ± 0.098
DnaJ homolog subfamily B member 1 R30L, P25685 | 0.081 ± 0.067
DnaJ homolog subfamily B member 1 R30M, P25685 | 0.104 ± 0.089
DnaJ homolog subfamily B member 1 R30N, P25685 | 0.014 ± 0.1
DnaJ homolog subfamily B member 1 R30Q, P25685 | 0.087 ± 0.11
DnaJ homolog subfamily B member 1 R30S, P25685 | -0.024 ± 0.073
DnaJ homolog subfamily B member 1 R30T, P25685 | -0.026 ± 0.1
DnaJ homolog subfamily B member 1 R30Y, P25685 | 0.131 ± 0.087
DnaJ homolog subfamily B member 1 R59A, P25685 | -0.051 ± 0.086
DnaJ homolog subfamily B member 1 R59C, P25685 | -0.128 ± 0.14
DnaJ homolog subfamily B member 1 R59D, P25685 | 0.095 ± 0.21
DnaJ homolog subfamily B member 1 R59E, P25685 | 0.026 ± 0.099
DnaJ homolog subfamily B member 1 R59F, P25685 | -0.045 ± 0.15
DnaJ homolog subfamily B member 1 R59G, P25685 | -0.065 ± 0.084
DnaJ homolog subfamily B member 1 R59H, P25685 | -0.167 ± 0.11
DnaJ homolog subfamily B member 1 R59I, P25685 | -0.232 ± 0.15
DnaJ homolog subfamily B member 1 R59K, P25685 | -0.104 ± 0.11
DnaJ homolog subfamily B member 1 R59L, P25685 | -0.186 ± 0.099
DnaJ homolog subfamily B member 1 R59M, P25685 | -0.256 ± 0.19
DnaJ homolog subfamily B member 1 R59N, P25685 | -0.068 ± 0.14
DnaJ homolog subfamily B member 1 R59P, P25685 | -0.4 ± 0.15
DnaJ homolog subfamily B member 1 R59Q, P25685 | -0.194 ± 0.13

Substance | abundance fitness
DnaJ homolog subfamily B member 1 R59S, P25685 | -0.036 ± 0.081
DnaJ homolog subfamily B member 1 R59T, P25685 | 0.07 ± 0.1
DnaJ homolog subfamily B member 1 R59V, P25685 | -0.059 ± 0.071
DnaJ homolog subfamily B member 1 R59W, P25685 | -0.186 ± 0.14
DnaJ homolog subfamily B member 1 R61A, P25685 | -0.596 ± 0.16
DnaJ homolog subfamily B member 1 R61C, P25685 | -0.325 ± 0.15
DnaJ homolog subfamily B member 1 R61D, P25685 | -0.668 ± 0.18
DnaJ homolog subfamily B member 1 R61E, P25685 | -0.362 ± 0.11
DnaJ homolog subfamily B member 1 R61F, P25685 | -0.756 ± 0.18
DnaJ homolog subfamily B member 1 R61G, P25685 | -0.406 ± 0.1
DnaJ homolog subfamily B member 1 R61I, P25685 | -0.584 ± 0.13
DnaJ homolog subfamily B member 1 R61K, P25685 | -0.247 ± 0.16
DnaJ homolog subfamily B member 1 R61L, P25685 | -0.527 ± 0.076
DnaJ homolog subfamily B member 1 R61M, P25685 | -0.495 ± 0.14
DnaJ homolog subfamily B member 1 R61N, P25685 | -0.425 ± 0.1
DnaJ homolog subfamily B member 1 R61Q, P25685 | -0.336 ± 0.093
DnaJ homolog subfamily B member 1 R61S, P25685 | -0.528 ± 0.068
DnaJ homolog subfamily B member 1 R61V, P25685 | -0.429 ± 0.077
DnaJ homolog subfamily B member 1 R61W, P25685 | -0.897 ± 0.14
DnaJ homolog subfamily B member 1 R61Y, P25685 | -0.606 ± 0.13
DnaJ homolog subfamily B member 1 S16A, P25685 | -0.167 ± 0.066
DnaJ homolog subfamily B member 1 S16C, P25685 | -0.185 ± 0.077
DnaJ homolog subfamily B member 1 S16D, P25685 | -0.174 ± 0.09
DnaJ homolog subfamily B member 1 S16G, P25685 | -0.074 ± 0.055
DnaJ homolog subfamily B member 1 S16H, P25685 | -0.24 ± 0.13

Substance | abundance fitness
DnaJ homolog subfamily B member 1 S16I, P25685 | -0.371 ± 0.11
DnaJ homolog subfamily B member 1 S16K, P25685 | -0.188 ± 0.12
DnaJ homolog subfamily B member 1 S16L, P25685 | -0.297 ± 0.053
DnaJ homolog subfamily B member 1 S16M, P25685 | -0.258 ± 0.073
DnaJ homolog subfamily B member 1 S16N, P25685 | -0.059 ± 0.1
DnaJ homolog subfamily B member 1 S16P, P25685 | -0.123 ± 0.062
DnaJ homolog subfamily B member 1 S16R, P25685 | -0.158 ± 0.065
DnaJ homolog subfamily B member 1 S16T, P25685 | -0.057 ± 0.092
DnaJ homolog subfamily B member 1 S16V, P25685 | -0.301 ± 0.066
DnaJ homolog subfamily B member 1 S16Y, P25685 | -0.676 ± 0.073
DnaJ homolog subfamily B member 1 S56A, P25685 | -0.142 ± 0.085
DnaJ homolog subfamily B member 1 S56C, P25685 | 0.022 ± 0.16
DnaJ homolog subfamily B member 1 S56D, P25685 | -0.551 ± 0.094
DnaJ homolog subfamily B member 1 S56E, P25685 | -0.496 ± 0.079
DnaJ homolog subfamily B member 1 S56F, P25685 | -0.526 ± 0.12
DnaJ homolog subfamily B member 1 S56G, P25685 | 0.002 ± 0.079
DnaJ homolog subfamily B member 1 S56H, P25685 | -0.217 ± 0.16
DnaJ homolog subfamily B member 1 S56I, P25685 | -0.174 ± 0.36
DnaJ homolog subfamily B member 1 S56K, P25685 | -0.051 ± 0.17
DnaJ homolog subfamily B member 1 S56M, P25685 | -0.171 ± 0.095
DnaJ homolog subfamily B member 1 S56N, P25685 | -0.343 ± 0.15
DnaJ homolog subfamily B member 1 S56P, P25685 | -0.99 ± 0.1
DnaJ homolog subfamily B member 1 S56Q, P25685 | -0.25 ± 0.14
DnaJ homolog subfamily B member 1 S56R, P25685 | -0.226 ± 0.091
